Experiments:
Conditions in all cases: FMN input: 0 or 200 uM; Eterna round: R93 (includes R88 designs)
MS2 coat protein [1] = assay: apparent KD of MS2 coat protein, switch ON state; designed switch direction (-1 OFF switch, 1 ON switch): 1; higher = weaker reporter binding
In short: (§1)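 The buffer was 100 mM Tris-HCl pH 7.5 with 80 mM KCl and 4 mM MgCl2, used without or with constant ligand. In it, RNA switches transcribed on-chip from Illumina sequencing clusters were titrated with SNAP-549-labelled MS2 coat protein in twofold steps from 0.7 or 1.5 nM to 3 µM. Apparent KD for each design is the median of its normalised cluster binding-curve fits.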

MS2 coat protein [2] = assay: apparent KD of MS2 coat protein, switch OFF state (with FMN for OFF switches, without FMN for ON switches); designed switch direction (-1 OFF switch, 1 ON switch): 1; higher = weaker reporter binding
In short: as §1

MS2 coat protein [3] = assay: apparent KD of MS2 coat protein, switch ON state; designed switch direction (-1 OFF switch, 1 ON switch): -1; higher = weaker reporter binding
In short: as §1

MS2 coat protein [4] = assay: apparent KD of MS2 coat protein, switch OFF state (with FMN for OFF switches, without FMN for ON switches); designed switch direction (-1 OFF switch, 1 ON switch): -1; higher = weaker reporter binding
In short: as §1

Row | Sequence | apparent KD of MS2 coat protein (MS2 coat protein [1]) | apparent KD of MS2 coat protein (MS2 coat protein [2]) | apparent KD of MS2 coat protein (MS2 coat protein [3]) | apparent KD of MS2 coat protein (MS2 coat protein [4])
1 | UCAGAACCGACAAAGGAUAUAGCGGGUGAGACAUGAGGAUCACCCAUGUAUGCAGAACUCAUCCUCUAGAAGGUUGAGACGGAUA [Maedanon] | 0.213 µM | 0.0936 µM |  | 
2 | AAAAAACAUGAGGAUCACCCAUGUCGAAAGACGUGAGGAUAUGUACAGACUUCGGUCUGUACAGAAGGCACGUCAA [SS1 - 1044] | 0.0173 µM | 0.0248 µM |  | 
3 | AAAAAACAUGAGGAUCACCCAUGUCGAAAGACGUGAGGAUAUGUACAGACUUCGGUCUGUACAGAAGGCACGAAAA [SS1 - 1038] | 0.0185 µM | 0.0604 µM |  | 
4 | AAAAGACAUGAGGAUCACCCAUGUAAAGACGUAGGAGGAUAUGUCGUGAAAAAAGACUUGGCAGAAGGCCUGUGUC [SS1 - 40] | 0.0214 µM | 0.0266 µM |  | 
5 | UAAAAACAUGAGGAUCACCCAUGUGAAAAUAUGGGAGGAUAUACAAAGACGAGAGUCAAAGUAGAAGGCCUAAAAU [Mat - Same State 1 - Eli mod - D88] | 0.0157 µM | 0.115 µM |  | 
6 | GAAAAACAUGAGGAUCACCCAUGUGAGAAUAUGGAAGGAUAUACAAAGACGAAAGUCAAAGUAGAAGGUCUAAAAG [Mat - Same State 1 - Eli mod - D15] | 0.0289 µM | 0.0205 µM |  | 
7 | GCCUAACAUGAGGAUCACCCAUGUAGUGGGUUGUUAGGAUAUGGACCACAAAACGCGGUACCAGAAGGAAUAGAAA [Atbima] | 0.393 µM | 0.538 µM |  | 
8 | AAACCACAUGAGGAUCACCCAUGUGAAAAAAAUACAGGAUAUGGAAACACGAAAGUGAAACCAGAAGGGUGAAAAA [77%, Mat - Mod of Eli, 28] | 0.0134 µM | 0.0166 µM |  | 
9 | AGUUGGCGAGGAUAUACAUGAGGAUCACCCAUGUAAAAUAAUGAAAAAGUAGGGAAAAGUAGAAGGCGCUGACA [73%, Moding Norbert Elias, 19] |  |  | 0.0362 µM | 0.0967 µM
10 | AAAAAACAUGAGGAUCACCCAUGUGAGGAUAUCGUAAACAAAAAAAACAAAAACAAAUCGAGAAGGCACAAAAA [Amethyst 34] |  |  | 0.021 µM | 0.0351 µM
11 | AGGAAACAUGAGGAUCACCCAUGUCAGGAUAUAGGAAAGAAAAGAAAAGAAAGAAGAAUUAGAAGGGACAAGAA [King Scorpion] |  |  | 0.0235 µM | 0.0165 µM
12 | AUCUAGUCAGGAUAUCGAUGAAAUGAAGUGAAAGAAAAGAACGAGAAGGGACAUGAGGAUCACCCAUGUUAGAA [EteRNA is fun!] |  |  | 0.0312 µM | 0.0188 µM
13 | AGAAUACAUGAGGAUCACCCAUGUGAGGAUAUCAGAAGAAAAAGAAAAGAAAAGAAACUGAGAAGGCACAAAAG [EX 1 May 15] |  |  | 0.0357 µM | 0.0661 µM
14 | AAGCUGCUAGGAUAUACAGCAGGGAUUCGAAAACCCACGAAACAUGAGGAUCACCCAUGUAGAAGGAGUAGGGA [Attixe] |  |  | 0.0229 µM | 0.0152 µM
15 | AAGAAGUCAGGAUAUGCCAAAGGUCACGAAAGUGACAAAGGGCAGAAGGGACAUGAGGAUCACCCAUGUAAAGA [Opal 2] |  |  | 0.0472 µM | 0.0567 µM
16 | AACAGUACAGGAUAUACAUGAGGAUCACCCAUGUAAAAAUAAAAGGGAAACUCAAAAAGUAGAAGGGUACUGGA [Moding Maslow revisited (73) 13] |  |  | 0.117 µM | 0.0786 µM
17 | AUCUUGUGAGGAUAUGCAUGAAAUGAAGUGAAAGAAAAGAAGCAGAAGGCACAUGAGGAUCACCCAUGUUAGAA [EteRNA is fun!] |  |  | 0.0335 µM | 0.0622 µM
18 | GGUUGGCGAGGAUAUACAUGAGGAUCACCCAUGUGAGAGAAAAAAGUGAGGAGGAGGAGUAGAAGGCGCUGACG [salish99-ex3-18] |  |  | 0.0284 µM | 0.097 µM
19 | AACUGCGCAGGAUAUACAUGAGGAUCACCCAUGUAAAGAAAAGAAAGAUCCGAAGAAAGUAGAAGGGCGUGGAA [Variant 2 of Mod 1 of Ex3 sub 3, by Tesla's Dusciple Round 1] |  |  | 0.0432 µM | 0.0563 µM

From the supplement of paper PMC9170038
